Source: the supplement of paper PMC9112550, “Optimization of the antimicrobial peptide Bac7 by deep mutational scanning” (BMC Biology, 2022)

Tested on: Escherichia coli TOP10
Test: shrunken log2 fold change of peptide-encoding DNA abundance (4.5 h post-induction vs induction); higher = less antimicrobial activity (less host growth inhibition)
Conditions: time post-induction: 4.5 h; library: site-saturation at positions 5, 18, 19, 20
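Also: peptides expressed intracellularly from a pBAD plasmid library in pooled LB shake-flask culture, induced with 0.3% L-arabinose, DNA abundance read by NGS, three biological replicates, DESeq2 with apeglm shrinkage.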

Sequence	shrunken log2 fold change
RRIRQRPPRLPRPRPRPHTEPRP	0.0633
RRIRQRPPRLPRPRPRPHTYPRP	-0.753
RRIRQRPPRLPRPRPRPHVDPRP	-0.088
RRIRQRPPRLPRPRPRPHYEPRP	-0.167
RRIRQRPPRLPRPRPRPIAFPRP	-0.168
RRIRQRPPRLPRPRPRPIDEPRP	3.38
RRIRQRPPRLPRPRPRPIERPRP	-0.0353
RRIRQRPPRLPRPRPRPIFCPRP	0.276
RRIRQRPPRLPRPRPRPIKQPRP	0.00621
RRIRQRPPRLPRPRPRPIKVPRP	0.0441
RRIRQRPPRLPRPRPRPILRPRP	0.034
RRIRQRPPRLPRPRPRPIMEPRP	-0.0496
RRIRQRPPRLPRPRPRPIMMPRP	-0.0173
RRIRQRPPRLPRPRPRPIMRPRP	0.0932
RRIRQRPPRLPRPRPRPINFPRP	0.0669
RRIRQRPPRLPRPRPRPINQPRP	-0.314
RRIRQRPPRLPRPRPRPIPDPRP	-0.07
RRIRQRPPRLPRPRPRPIPIPRP	-0.104
RRIRQRPPRLPRPRPRPIPQPRP	-0.0321
RRIRQRPPRLPRPRPRPIQCPRP	0.0238
RRIRQRPPRLPRPRPRPIQYPRP	-0.151
RRIRQRPPRLPRPRPRPISIPRP	-0.93
RRIRQRPPRLPRPRPRPISRPRP	-0.0404
RRIRQRPPRLPRPRPRPITCPRP	-0.0276
RRIRQRPPRLPRPRPRPIVPPRP	0.053

Sequence	shrunken log2 fold change
RRIRQRPPRLPRPRPRPKAYPRP	0.0697
RRIRQRPPRLPRPRPRPKCAPRP	0.16
RRIRQRPPRLPRPRPRPKEEPRP	0.00489
RRIRQRPPRLPRPRPRPKEKPRP	0.00902
RRIRQRPPRLPRPRPRPKEMPRP	0.229
RRIRQRPPRLPRPRPRPKEWPRP	-0.00145
RRIRQRPPRLPRPRPRPKFMPRP	-0.18
RRIRQRPPRLPRPRPRPKFYPRP	-0.206
RRIRQRPPRLPRPRPRPKGPPRP	-0.201
RRIRQRPPRLPRPRPRPKICPRP	-0.101
RRIRQRPPRLPRPRPRPKKQPRP	-0.286
RRIRQRPPRLPRPRPRPKKTPRP	-0.0104
RRIRQRPPRLPRPRPRPKMVPRP	-0.0201
RRIRQRPPRLPRPRPRPKNCPRP	-0.0633
RRIRQRPPRLPRPRPRPKNNPRP	-0.616
RRIRQRPPRLPRPRPRPKNPPRP	-0.26
RRIRQRPPRLPRPRPRPKPHPRP	0.167
RRIRQRPPRLPRPRPRPKRGPRP	0.38
RRIRQRPPRLPRPRPRPKRQPRP	0.0299
RRIRQRPPRLPRPRPRPKRYPRP	-0.138
RRIRQRPPRLPRPRPRPKVIPRP	-0.0316
RRIRQRPPRLPRPRPRPKWGPRP	-0.0154
RRIRQRPPRLPRPRPRPKYEPRP	0.0304
RRIRQRPPRLPRPRPRPLCIPRP	-0.28
RRIRQRPPRLPRPRPRPLCQPRP	-0.304

Sequence	shrunken log2 fold change
RRIRQRPPRLPRPRPRPLDIPRP	-0.163
RRIRQRPPRLPRPRPRPLEEPRP	0.275
RRIRQRPPRLPRPRPRPLEWPRP	0.0921
RRIRQRPPRLPRPRPRPLGDPRP	0.0938
RRIRQRPPRLPRPRPRPLKQPRP	-0.151
RRIRQRPPRLPRPRPRPLLDPRP	0.525
RRIRQRPPRLPRPRPRPLLMPRP	0.181
RRIRQRPPRLPRPRPRPLMIPRP	-0.0458
RRIRQRPPRLPRPRPRPLMRPRP	0.345
RRIRQRPPRLPRPRPRPLNAPRP	0.0127
RRIRQRPPRLPRPRPRPLNDPRP	-0.277
RRIRQRPPRLPRPRPRPLPEPRP	0.39
RRIRQRPPRLPRPRPRPLQDPRP	-0.0148
RRIRQRPPRLPRPRPRPLRLPRP	0.655
RRIRQRPPRLPRPRPRPLSFPRP	-0.415
RRIRQRPPRLPRPRPRPLSKPRP	-0.194
RRIRQRPPRLPRPRPRPLSMPRP	-0.262
RRIRQRPPRLPRPRPRPLSVPRP	-0.539
RRIRQRPPRLPRPRPRPLTQPRP	0.0547
RRIRQRPPRLPRPRPRPLVGPRP	0.38
RRIRQRPPRLPRPRPRPLVHPRP	-0.203
RRIRQRPPRLPRPRPRPLWAPRP	0.00344
RRIRQRPPRLPRPRPRPMAEPRP	0.0238
RRIRQRPPRLPRPRPRPMDYPRP	-0.0062
RRIRQRPPRLPRPRPRPMEDPRP	-0.00192

Sequence	shrunken log2 fold change
RRIRQRPPRLPRPRPRPMEHPRP	0.0112
RRIRQRPPRLPRPRPRPMEQPRP	-0.074
RRIRQRPPRLPRPRPRPMERPRP	0.301
RRIRQRPPRLPRPRPRPMGSPRP	-0.0869
RRIRQRPPRLPRPRPRPMHIPRP	-0.377
RRIRQRPPRLPRPRPRPMHWPRP	0.0747
RRIRQRPPRLPRPRPRPMIGPRP	0.0241
RRIRQRPPRLPRPRPRPMKKPRP	0.0152
RRIRQRPPRLPRPRPRPMLQPRP	0.00663
RRIRQRPPRLPRPRPRPMMMPRP	-0.327
RRIRQRPPRLPRPRPRPMMWPRP	0.0311
RRIRQRPPRLPRPRPRPMPIPRP	0.0245
RRIRQRPPRLPRPRPRPMQTPRP	-0.0319
RRIRQRPPRLPRPRPRPMRDPRP	0.0311
RRIRQRPPRLPRPRPRPMRHPRP	2.84
RRIRQRPPRLPRPRPRPMRSPRP	0.196
RRIRQRPPRLPRPRPRPMSWPRP	-0.0294
RRIRQRPPRLPRPRPRPMTDPRP	-0.0989
RRIRQRPPRLPRPRPRPMTPPRP	0.126
RRIRQRPPRLPRPRPRPMTVPRP	-0.00149
RRIRQRPPRLPRPRPRPMVFPRP	0.111
RRIRQRPPRLPRPRPRPMVIPRP	-0.105
RRIRQRPPRLPRPRPRPMWLPRP	-0.22
RRIRQRPPRLPRPRPRPMWWPRP	0.128
RRIRQRPPRLPRPRPRPMYWPRP	0.0971

Sequence	shrunken log2 fold change
RRIRQRPPRLPRPRPRPNCLPRP	-0.0533
RRIRQRPPRLPRPRPRPNCMPRP	0.188
RRIRQRPPRLPRPRPRPNCQPRP	-0.055
RRIRQRPPRLPRPRPRPNCRPRP	0.13
RRIRQRPPRLPRPRPRPNCTPRP	-0.448
RRIRQRPPRLPRPRPRPNFQPRP	-0.198
RRIRQRPPRLPRPRPRPNGHPRP	-0.104
RRIRQRPPRLPRPRPRPNHEPRP	-0.102
RRIRQRPPRLPRPRPRPNIQPRP	-0.228
RRIRQRPPRLPRPRPRPNIWPRP	-0.0842
RRIRQRPPRLPRPRPRPNKKPRP	-0.0406
RRIRQRPPRLPRPRPRPNKSPRP	-0.202
RRIRQRPPRLPRPRPRPNLWPRP	-0.0933
RRIRQRPPRLPRPRPRPNMMPRP	-0.442
RRIRQRPPRLPRPRPRPNNCPRP	-0.138
RRIRQRPPRLPRPRPRPNNDPRP	-0.624
RRIRQRPPRLPRPRPRPNNKPRP	-0.721
RRIRQRPPRLPRPRPRPNPFPRP	-0.26
RRIRQRPPRLPRPRPRPNPGPRP	-0.205
RRIRQRPPRLPRPRPRPNPIPRP	0.0989
RRIRQRPPRLPRPRPRPNPRPRP	0.0565
RRIRQRPPRLPRPRPRPNQDPRP	-0.0715
RRIRQRPPRLPRPRPRPNQKPRP	-0.0966
RRIRQRPPRLPRPRPRPNRIPRP	-0.0402
RRIRQRPPRLPRPRPRPNRPPRP	-0.056

Sequence	shrunken log2 fold change
RRIRQRPPRLPRPRPRPNRWPRP	-0.0161
RRIRQRPPRLPRPRPRPNSDPRP	-0.594
RRIRQRPPRLPRPRPRPNSEPRP	-0.206
RRIRQRPPRLPRPRPRPNSNPRP	-0.648
RRIRQRPPRLPRPRPRPNTFPRP	-0.666
RRIRQRPPRLPRPRPRPNTTPRP	0.15
RRIRQRPPRLPRPRPRPNWFPRP	-0.151
RRIRQRPPRLPRPRPRPNWGPRP	0.105
RRIRQRPPRLPRPRPRPNWTPRP	-0.00963
RRIRQRPPRLPRPRPRPPADPRP	0.362
RRIRQRPPRLPRPRPRPPAWPRP	0.0654
RRIRQRPPRLPRPRPRPPCLPRP	-0.192
RRIRQRPPRLPRPRPRPPCYPRP	-0.0902
RRIRQRPPRLPRPRPRPPDHPRP	-0.27
RRIRQRPPRLPRPRPRPPDIPRP	-0.0497
RRIRQRPPRLPRPRPRPPELPRP	0.109
RRIRQRPPRLPRPRPRPPFGPRP	0.219
RRIRQRPPRLPRPRPRPPFMPRP	0.213
RRIRQRPPRLPRPRPRPPIEPRP	-0.09
RRIRQRPPRLPRPRPRPPKTPRP	0.113
RRIRQRPPRLPRPRPRPPNAPRP	0.285
RRIRQRPPRLPRPRPRPPNFPRP	-0.0994
RRIRQRPPRLPRPRPRPPNSPRP	-0.0968
RRIRQRPPRLPRPRPRPPNTPRP	-0.0954
RRIRQRPPRLPRPRPRPPPSPRP	0.731
